13 sequences from the supplement of paper PMC7877785 can be followed below.

± gives the uncertainty stated by the source.

The data set in a line: self-splicing fitness, log relative to wild type (ln ratio); higher = more splicing; Tetrahymena group I intron in knt gene, E. coli kanamycin selection, DiMSum; sequences stand for … in CUCUCU…GGAGGGAAAAGUUAUCAGGCAUGCACCUGGUAGCUAGUCUUUAAACCAAUAGAUUGCAUCGGUUUAAAAGGCAAGACCGUCAAAUUGCGGGAAAGGGGUCAACAGCCGUUCAGUACCAAGUCUCAGGGGAAACUUUGAGAUGGCCUUGCAAAGGGUAUGGUAAUAAGCUGACGGACAUGGUCCUAACCACGCAGCCAAGUCCUAAGUCAACAGAUCUUCUGUUGAUAUGGAUGCAGUUCACAGACUAAAUGUCGGUCGGGGAAGAUGUAUUCUUCUCAUAAGAUAUAGUCGGACCUCUCCUUAAUGGGAGCUAGCGGAUGAAGUGAUGCAACACUGGAGCCGCUGGGAACUAAUUUGUAUGCGAAAGUAUAUUGAUUAGUUUUGGAGUACUCGUGGUCG
The essentials:
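Six replicate transformations of E. coli BL21(DE3) with a pET-22b(+) library were grown overnight at 37°C or 30°C. The library randomised all eight P1ex-region intron nucleotides, the intron lying in the knt kanamycin-resistance gene, and plates were LB agar with or without 25 μg/mL kanamycin plus 100 μg/mL carbenicillin, 50 μM IPTG and 0.2% rhamnose. Pooled colonies were amplicon-sequenced on an Illumina HiSeq 2500, and fitness is the DiMSum error-weighted combination of wild-type-normalised replicate fold changes, kanamycin versus none.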

Consider CGGCAGCAAUAUUACGUAUA, for which the “self-splicing fitness (ln)” value is -3.35 ± 0.27 (30 °C) and -2.8 ± 0.23 (37 °C).

Turning to AAUUAGCAAUAUUACGUACC, the “self-splicing fitness (ln)” value was -0.499 ± 0.21 (30 °C) and -0.307 ± 0.29 (37 °C).

On to GCUGAGCAAUAUUACGAUGG, for which the “self-splicing fitness (ln)” value (30 °C) is -2.25 ± 0.17 and the “self-splicing fitness (ln)” value (37 °C) was -0.805 ± 0.12.

In the case of GCACAGCAAUAUUACGCUGA, the “self-splicing fitness (ln)” value reads like this: (30 °C) -2.36 ± 0.13; (37 °C) -0.362 ± 0.088.

Turning to AGUUAGCAAUAUUACGGUGA, the “self-splicing fitness (ln)” value (30 °C) was -1.43 ± 0.13 and the “self-splicing fitness (ln)” value (37 °C) was -1.13 ± 0.21.

Regarding UUUAAGCAAUAUUACGUUAG, the “self-splicing fitness (ln)” value (30 °C) is -1.75 ± 0.13 and the “self-splicing fitness (ln)” value (37 °C) is -0.995 ± 0.14.

Consider UAUAAGCAAUAUUACGCCAC, for which the “self-splicing fitness (ln)” value reads like this: (30 °C) -3.21 ± 0.43; (37 °C) -1.21 ± 0.38.

With UAAUAGCAAUAUUACGUUCG, the “self-splicing fitness (ln)” value is, setting by setting: (30 °C) -0.563 ± 0.11; (37 °C) 0.133 ± 0.12.

For CCAAAGCAAUAUUACGGGAU, the “self-splicing fitness (ln)” value runs as follows: (30 °C) -3.6 ± 0.15; (37 °C) -2.37 ± 0.14.

Take CACGAGCAAUAUUACGGGUC: the “self-splicing fitness (ln)” value was -4.31 ± 0.26 (30 °C) and -1.99 ± 0.15 (37 °C).

In the case of AGUCAGCAAUAUUACGUCGG, the “self-splicing fitness (ln)” value is, setting by setting: (30 °C) -0.874 ± 0.086; (37 °C) -1.23 ± 0.11.

As to GACUAGCAAUAUUACGGUGU, the “self-splicing fitness (ln)” value was -1.84 ± 0.098 (30 °C) and -0.76 ± 0.1 (37 °C).

Consider CUAAAGCAAUAUUACGAUUA, for which the “self-splicing fitness (ln)” value was -2.51 ± 0.092 (30 °C) and -1.19 ± 0.12 (37 °C).
